Results taken from article PMC5472591, “Mechanical stability of talin rod controls cell migration and substrate sensing” (Scientific Reports, 2017).

Target: the molecule itself
Assay: SEC-MALS; SEC on Superdex 200 10/300 GL with inline right angle / static light scattering detector; 200 ug protein injected; 50 mM NaH3PO4, 150 mM NaCl pH 7.2; 0.5 ml/min; 20 °C; detector calibrated with the monomeric peak of BSA

B1: talin-1 rod R3 subdomain fragment (amino acids 795-911) 4S mutant, His6-tagged (domain or fragment, mouse)
chain: SSSGPSASGTGAGRYDQATDTSLTVTENSFSSMGDAGEMVRQARILAQATSDLVNAIKADAEGESDLENSRKLLSAAKILADATAKMVEAAKGAAAHPDSEEQQQRSREAAEGSRMATNAAAQNAIKK
notes: 11 residue linker between the N-terminal His6-tag and the talin fragment; talin-1, mouse, R3 subdomain, residues 795-911, with all four destabilizing point mutations; not shown: His6, N-terminal, kept
- stoichiometry N: 2
